This passage reports binding signal results from US20170137838.

Like-named read-outs stand apart in the source and are kept apart here.

The subject of this data set is ONAC131 (Os12g03040.1) (Oryza sativa subsp. japonica cv. Nipponbare).
The mark [1] stands for this setting: relative to SO1, SD 0.03, CELD assay.
The mark [2] stands for this setting: relative to SO1, SD 0.01, CELD assay.
Setting [3] is: relative to SO1, SD 0.05, CELD assay.

For the sequence “AATCCACCGCCATAAATCTACGTAACAAGTCA (double strand) [Rice chitinase site II]”, the binding signal (relative to SO1, CELD assay) was 0. In turn, “CACTTGACACGTGGGATCCACGTCACCATCCT (double strand) [Rice glyoxalase I family promoter element]” displayed a binding signal under setting [1] of 0.29.

Turning to “GAGATCCGTGCACAGTAAATAACTGTTACA (double strand) [SO1m14]”, the binding signal (relative to SO1, CELD assay) is 0. For the sequence “GAGATCCGTGCACAGTACGTAACTGTTACA (double strand) [SO1 (TaNAC69 high affinity binding site I)]”, the binding signal (CELD reporter assay on streptavidin plate, reference, SD 0.03, pH 7.0, 50 mM KCl, 2 mM MgCl2) turned out to be 1. In turn, “GAGATCTGTGCACAGTACGTAACTGTTACA (double strand) [SO1m28]” showed a binding signal under setting [2] of 0.01.

In turn, “GAGGCCCTTAATGTTTACACGTCTCTAGTG (double strand) [SO39m6]” yielded a binding signal under setting [2] of 0.18. “GAGGTGTTTAATGTTTACACGTCTCTAGTG (double strand) [SO39 (TaNAC69 high affinity binding site II)]” gave a binding signal under setting [3] of 0.93. “GATTTGTCTCGTAATTTACACGTAATCTGTGT (double strand) [Rice ZIM family protein promoter element]” showed a binding signal under setting [3] of 0.43. Regarding “GCCAGCGTTCTGTTTCTGTACGTCTCTCTGGG (double strand) [Arabidopsis glyoxalase I family 5'-UTR element]”, the binding signal (relative to SO1, SD 0.03, same sequence as rice chitinase site I) was determined as 1.07. Consider “GCCAGCGTTCTGTTTCTGTACGTCTCTCTGGG (double strand) [Rice chitinase site I]”, for which, under setting [1], the binding signal came out at 1.07. Consider “TTCCGTAGTTTACTGGATCACGACACACACAC (double strand) [Rice chitinase site III]”, for which the binding signal (relative to SO1, SD 0.02, CELD assay) was 0.15.
